Source: patent US20050153894 (published 2005)
Square brackets hold non-standard residues; d marks the D form. Ends that are not written are not given here.

How the values were obtained:
cyclin D1 = cyclin D1 (human, UniProt P24385); assay: competition
cyclin A = cyclin A (human, UniProt P20248); assay: competition, immobilised p21 peptide
cyclin A, sequence (P20248 whole entry): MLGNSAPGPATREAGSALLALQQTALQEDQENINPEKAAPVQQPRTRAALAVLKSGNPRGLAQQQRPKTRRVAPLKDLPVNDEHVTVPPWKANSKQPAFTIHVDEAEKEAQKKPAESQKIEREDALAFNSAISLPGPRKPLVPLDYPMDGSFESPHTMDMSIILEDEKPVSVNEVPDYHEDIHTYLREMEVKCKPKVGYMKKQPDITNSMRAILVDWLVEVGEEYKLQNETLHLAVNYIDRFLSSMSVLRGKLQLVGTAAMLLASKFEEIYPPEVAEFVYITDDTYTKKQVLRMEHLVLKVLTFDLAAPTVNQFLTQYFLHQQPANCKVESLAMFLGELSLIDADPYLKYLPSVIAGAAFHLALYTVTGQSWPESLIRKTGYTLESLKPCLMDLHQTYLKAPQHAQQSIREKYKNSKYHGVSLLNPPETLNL

cyclin D1, sequence (P24385 whole entry): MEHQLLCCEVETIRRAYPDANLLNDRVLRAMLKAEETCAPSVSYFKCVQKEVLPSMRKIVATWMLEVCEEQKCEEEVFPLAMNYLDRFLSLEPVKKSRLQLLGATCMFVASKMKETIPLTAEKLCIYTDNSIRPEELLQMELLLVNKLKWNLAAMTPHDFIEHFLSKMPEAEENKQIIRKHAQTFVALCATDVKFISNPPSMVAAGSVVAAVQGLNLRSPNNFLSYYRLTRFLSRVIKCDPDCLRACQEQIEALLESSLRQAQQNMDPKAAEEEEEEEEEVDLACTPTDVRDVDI

Row | Binder | IC50 (cyclin D1) [µM] | IC50 (cyclin A) [µM]
1 | KA[code U]RRLIF [KAURRLIF] | 20 | 
2 | GST-pRb(772-928) (protein) ASTRPPTLSPIPHIPRSPYKFPSSPLRIPGGNIYISPLKSPYKISEGLPTPTKMTPRSRILVSIGESFGTSEKFQKINQMVCNSDRVLKRSAEGSNPPKPLKKLRFDIEGSDEADGSKHLPGESKFQQKLAEMTSTRTRMQKQKMNDSMDTSNKEEK |  | 9

More lines, now with the values ahead:

Row | IC50 (cyclin D1) [µM] | IC50 (cyclin A) [µM] | Binder
3 | > 200 |  | SA[code U]RNLFG [p27 SAURNLFG]
4 | 134 |  | KA[code U]RRLFG [p21 N-terminus KAURRLFG]
